This is an account of results in article PMC4503980 (Scientific Reports, 2015).

Ends that are not written are not given here. Peptide text beside a SMILES is read from it. * marks the point of attachment. X1 = CCN1C(=CC=CC=CC2=[N+](CCCCCC(=O)NCCN3C(=O)CC(*)C3=O)c3ccc(S(=O)(=O)[O-])cc3C2(C)C)C(C)(C)c2cc(S(=O)(=O)O)ccc21

Sequences and labels used below:
B1: PSD-95-PDZ2 (157-249, human) (domain or fragment, UniProt P78352 157-249, looked up)
chain: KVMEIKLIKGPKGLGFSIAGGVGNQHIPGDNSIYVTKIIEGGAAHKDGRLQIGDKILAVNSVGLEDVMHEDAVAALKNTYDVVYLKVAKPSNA
notes: PSD-95, human, PDZ2 domain, residues 157-249; Construct of the ITC and NMR experiments; 15N-labelled in some NMR samples
B2: extended Mus musculus nNOS-PDZ (residues 12-134) (domain or fragment, UniProt Q9Z0J4 12-134, looked up)
chain: QPNVISVRLFKRKVGGLGFLVKERVSKPPVIISDLIRGGAAEQSGLIQAGDIILAVNDRPLVDLSYDSALEVLRGIASETHVVLILRGPEGFTTHLETTFTGDGTPKTIRVTQPLGTPTKAVD
notes: neuronal nitric oxide synthase (nNOS), Mus musculus, extended PDZ domain, residues 12-134, Uniprot Q9JJ30; Construct of the ITC and NMR experiments; 15N-labelled in some NMR samples; also called extended nNOS-PDZ; source: sub-cloned into pETM11, expressed and purified following a similar protocol to that of PSD-95-PDZ2

Test [1] concerns the target PDZ1-2 (61-249) from PSD-95 (human). Description: fluorescence polarisation; inhibition of TAMRA-Cnskr2 (5 nM)/PDZ2 (1.5 μM) or PDZ1-2 (1 μM) by increasing unlabelled nNOS-PDZ or GluN2B-C5; 1 x TBS pH 7.4; Ki calculated from IC50.
Test [2] addresses PDZ2 (155-249) from PSD-95 (human). The description is as above.
In the next test the target is TAMRA-Cnskr2. Description: fluorescence polarisation; saturation binding: increasing PDZ domain protein (typically 0-150 μM) added to a fixed low concentration of TAMRA- or Cy5-labelled probe (5 or 50 nM); 1 x TBS (150 mM NaCl, 10 mM Tris, pH 7.4), 10-15 min, room temperature. A general note: Polarisation of emitted light reports the rotation of a fluorescent probe.
Test [3] concerns the target TAMRA-labelled nNOS-PDZ (V36C) (human) (UniProt P29475). Described as above.
The target of a further test is Cy5-Nav1.4. The test is described as above.
For another test, the target named is T1, nNOS-PDZ (Homo sapiens, UniProt P29475).
T1 construct: nNOS-PDZ (12–130, human); made in house; host or cells: E. coli
As to the kind of experiment: FP saturation and inhibition assay, Cy5-Nav1.4 probe / nNOS-PDZ. Type of test: binding. How it is done: Fluorescent probes were made by attaching fluorophores (Cy5) to C-terminal 10- or 11-mer (C10 or C11) peptide ligands representing canonical and natural occurring protein partners (Supplementary Table S1). […] (Fig. 2).
(b) Cy5-GluN2B as probe (50 nM), [PDZ2] = 6 μM. (c) Cy5-CRIPT as probe (50 nM), [PDZ3] = 5 μM. […] Error bars indicate SEM based on three individual measurements.
nNOS-PDZ (12–130, human) and α-Syntrophin-PDZ (82–200, human), both comprising an N-terminal His-tag/FXa-site sequence ([…]), were likewise expressed in E. coli and purified by HisTrap chromatography followed by gel-filtration as described in details previously. To make the TAMRA-labelled nNOS-PDZ, mutant nNOS-PDZ (V36C) protein was generated by standard site-directed mutagenesis and characterized as described previously. Here, dithiothreitol was added to the pooled protein sample after HisTrap purification to a final concentration of 10 mM to eliminate unwanted disulfide bonds, and a final gel-filtration (50 mM NaPi buffer pH 7.5) was performed to remove impurities and salts. Next, purified nNOS-PDZ (V36C) was desalted by dialysis into 50 mM (NH4)2CO3 buffer (SnakeSkin dialysis tubing 3.5 MWCO, Pierce, Rockford, IL, USA) and subsequently lyophilized. nNOS-PDZ (V36C) was redissolved in 500 μL buffer (6 M GnHCl, 200 mM NaPi) and solid TAMRA-maleimide (5-tetramethylrhodamine-C2-maleimide; Anaspec, Fremont, CA, USA) was added in excess (cf. ESI-LC-MS). The coupling reaction was incubated at room temperature for 16 hours and TAMRA-labelled nNOS-PDZ was purified by preparative HPLC, and refolded in assay buffer. Functional validation was performed by FP[19], and all final proteins were characterized for purity and identity by SDS-PAGE and ESI-LC-MS.
Incubation time was 10–15 minutes (room temperature), and the assay was performed in a 1 × TBS buffer (150 mM NaCl, 10 mM Tris, pH 7.4) using black flat-bottom 384-well plates (Corning Life Sciences, NY) and a Safire2 plate-reader (Tecan, Männedorf, Switzerland). G-factor was adjusted so that probe alone (i.e. without protein interacting-partner) would give an FP value of 20 mP. This background value was subsequently subtracted from the raw data before plotting and analyzing the data. TAMRA- and Cy5-probes were measured at excitation/emission values of 530/585 nm (bandwidth = 20 nm) and 635/670 nm (bandwidth = 15 nm), respectively. […]
FP values were fitted to the general equation: Y = Bottom + (Top–Bottom)/[1 + (10^(X-logIC50)*HillSlope)], where X is the logarithmic value of peptide/compound concentration, and Y is the experimental FP values. Competitive inhibition constants, Ki values, were calculated from the IC50 values to quantify affinities between test substance and protein[42]. […]

Test [4] addresses PDZ1 (61-151) from PSD-95 (human). Description: fluorescence polarisation; 'direct' FP inhibition assay: TAMRA-nNOS (5 nM) with fixed PDZ1 (7.5 μM), PDZ2 (2.5 μM) or PDZ1-2 (0.3 μM); increasing control compound; 1 x TBS pH 7.4.
In test [5] the target is PDZ2 (155-249) from PSD-95 (human). Described as above.
In test [6] the target is B2. Description: ITC; 25 °C, 20 mM phosphate buffer pH 6.3; 100 μM PDZ2 in the cell titrated with 750 μM nNOS-PDZ; one-site model. As to conditions: both partners purified. On the technique in general: Isothermal titration calorimetry measures the heat released or taken up as one component is titrated into another.
The target of test [7] is B1. The description is as above. As to conditions: both partners purified.
The target in a further test is T2, PSD-95-PDZ1-2 (Homo sapiens, UniProt P78352).
T2 construct: PDZ1-2 (61-249); made in house; host or cells: E. coli BL21-DE3 pLysS
Description: FP saturation and inhibition, TAMRA-Cnskr2 / PSD-95-PDZ1-2. As to conditions: TAMRA-Cnskr2 5 nM, PDZ1-2 1 μM. Type of test: binding. The source says: (§1) First we tested a series of 23 fluorescent-labelled C-terminal peptide ligands (Supplementary Table S1) derived from PDZ-interacting proteins in order to find a probe with good activity towards the PSD-95 PDZ domains and no or little activity against nNOS-PDZ (Supplementary Fig. S1). The Cnskr2 probe fulfilled these selectivity criteria and was used to generate saturation curves with PDZ2 and PDZ1-2 of PSD-95 (Fig. 4a). […] Next, fixed concentrations of TAMRA-Cnskr2, PSD-95-PDZ2/1-2, and nNOS-PDZ were applied, corresponding to the conditions at IC50 of the nNOS-PDZ inhibition curve (Fig. 4b) where sensitivity of the assay is greatest. […] Here, we used the Sapk3-peptide as it has the desired high affinity to α1-Syntrophin-PDZ and low affinity to nNOS-PDZ (Supplementary Fig. S1).
(§2) The minor increases in mP at high concentrations, 260-2900 μM, were due to fluorescence artefacts.
(§3) Incubation time was 10–15 minutes (room temperature), and the assay was performed in a 1 × TBS buffer (150 mM NaCl, 10 mM Tris, pH 7.4) using black flat-bottom 384-well plates (Corning Life Sciences, NY) and a Safire2 plate-reader (Tecan, Männedorf, Switzerland). […] TAMRA- and Cy5-probes were measured at excitation/emission values of 530/585 nm (bandwidth = 20 nm) and 635/670 nm (bandwidth = 15 nm), respectively. […]

The target in test [8] is T3, PSD-95-PDZ2 (Homo sapiens, UniProt P78352). Description: ITC titration into PSD-95-PDZ2. Format: binding. The arrangement: PSD-95-PDZ2 (157–249, human); made in house. The source says:
Unlike the FP experiments above, which rely on inhibition of interaction partners, the ITC method is a direct measure of binding, regardless of where it takes place on the protein.
Figure 5 ITC curves. Plots showing titrations into PDZ domains fitted to a one-site model.
For isothermal titration calorimetry (ITC) and NMR, PSD-95-PDZ2 (157–249, human) was expressed and purified as described previously. The sequence for the extended Mus musculus nNOS-PDZ (residues 12–134, Uniprot Q9JJ30) was sub-cloned into a pETM11 vector using cloning sites Nco1 and Kpn1, and the protein was expressed and purified following a similar protocol to that used for the production of PSD-95-PDZ2.
All ITC experiments were carried out at 25 °C on an iTC200 Microcalorimeter (GE Healthcare) with a 200 μL cell capacity and 40 μL syringe volume. The buffer used for all solutions was 20 mM phosphate buffer at pH 6.3; each experiment consisted of an initial injection of 0.5 μL, followed by fifteen 2.39 μL injections before a final injection of 1.89 μL. […] In both cases no heat exchange was detected, confirming that there was appropriate match of buffer conditions with no indication of dilution effects. […] For the nNOS-PDZ/PSD-95-PDZ2 interaction, 100 μM PDZ2 in the cell was titrated with 750 μM nNOS-PDZ. […] All data was analysed using the Origin®7 software programme.

Test [9] has as its target T3, PSD-95-PDZ2. Description: FP saturation and inhibition, TAMRA-Cnskr2 / PSD-95-PDZ2. Format: binding. The arrangement: PDZ2 (155-249); made in house; host or cells: E. coli BL21-DE3 pLysS. As to conditions: TAMRA-Cnskr2 5 nM, PDZ2 […].
Description: as §1, §2, §3

The mark [10] stands for this setting: ITC, nNOS-PDZ titrated into PSD-95-PDZ2.

As a reminder, the Ki is a measure of affinity in units of concentration, obtained from inhibition or displacement. For GluN2B-C5 (peptide), the figures for the Ki in [1] and in test [2] were 4.8 µM and 1.6 µM, respectively.

For orientation: Kd means the concentration at which binding is half-saturated. Consider “PDZ2 (155-249) from PSD-95 (domain or fragment)”, for which the dissociation constant (Kd) with TAMRA-Cnskr2 came out at 0.38 µM; in [3] it was 1.1 µM.

In the case of “nNOS-PDZ (12-130, human) (from UniProt P29475 12-130) (domain or fragment)”, the Ki in test [1] is 0.81 µM; in test [2] it was 0.088 µM. Further, the figures for the dissociation constant Kd in the test with Cy5-Nav1.4 and in the test with TAMRA-Cnskr2 were 20 µM and > 190 µM, respectively.

Take `CCN1C(=CC=CC=CC2=[N+](CCCCCC(=O)NCCN3C(=O)CC(SC[C@H](N)C(=O)N[C@@H](CC(N)=O)C(=O)N[C@@H](CC(N)=O)C(=O)NCC(=O)N[C@H](C(=O)N[C@@H](CCCNC(=N)N)C(=O)N4CCC[C@H]4C(=O)NCC(=O)N[C@H](C(=O)N[C@@H](CCCCN)C(=O)N[C@@H](CCC(=O)O)C(=O)N[C@@H](CO)C(=O)N[C@@H](CC(C)C)C(=O)N[C@H](C(=O)O)C(C)C)C(C)C)C(C)C)C3=O)c3ccc(S(=O)(=O)[O-])cc3C2(C)C)C(C)(C)c2cc(S(=O)(=O)O)ccc21` (stereo partly drawn) [Cy5-Nav1.4] (H-C(X1)NNGVRPGVKESLV-OH; N-terminus assumed): at nNOS-PDZ (saturation curve, probe 50 nM), the dissociation constant (Kd) worked out at 20 ± 1 µM.

On to “PDZ1-2 (61-249) from PSD-95 (domain or fragment)”, for which the dissociation constant (Kd) is 1.1 µM in the test with TAMRA-Cnskr2 and 0.15 µM in test [3].

Take NNGVRPGVKESLV [Nav1.4-C10]: on nNOS-PDZ (Cy5-Nav1.4 probe 50 nM / nNOS-PDZ), the inhibition constant Ki came out at 45 ± 4 µM.

Molecule “PDZ1 (61-151) from PSD-95 (domain or fragment)” gave a dissociation constant (Kd) in test [3] of 2.4 µM.

As to {N‑cyclohexylethyl}-ETAV [N-cyclohexylethyl-ETAV], the Ki is 3.9 µM in test [4] and 2 µM in test [5].

Turning to B1, the dissociation constant Kd in [6] is ~0.67 µM.

As a reminder, the stoichiometry N is the number of molecules, sites or subunits per partner or assembly. On to B2, for which, in test [7], the dH was ~-7.11 kJ/mol and the “stoichiometry N” value amounted to 1.

B3: nNOS-PDZ: recombinant extended PDZ domain of nNOS (12–130 human for FP; 12–134 Mus musculus for ITC/NMR) (protein, UniProt P29475 12-130, looked up, fragment)
chain: QPNVISVRLFKRKVGGLGFLVKERVSKPPVIISDLIRGGAAEQSGLIQAGDIILAVNGRPLVDLSYDSALEVLRGIASETHVVLILRGPEGFTTHLETTFTGDGTPKTIRVTQPLGPPT
B3: the inhibitory constant (Ki) with PSD-95-PDZ1-2 worked out at 0.81 ± 0.023 µM. Also, the Kd in the test with PSD-95-PDZ2 [8] (100 μM PDZ2 in cell titrated with 750 μM nNOS-PDZ, pH 6.3, 25 °C) was ~0.67 µM. In the test with PSD-95-PDZ2 [8] (setting [10]), the “N (stoichiometry ratio)” value was found to be 1.0, the “T∆S” value was ~28 kJ/mol and the “∆H” value was ~-7.11 kJ/mol. In addition, in the test with PSD-95-PDZ2 [9], the Ki worked out at 0.088 ± 0.014 µM.
